The text below walks through data of patent US20230257476A1 (ELANCO US, published 2023).

The experiment has as its target T1, canine CD20 (canine, UniProt Q3C2E2 1-297).
T1 construct: whole, on cells; Endogenous antigen in acetone-fixed tissue cryosections (IHC); also called CD20 protein in dogs
T1 sequence (looked up): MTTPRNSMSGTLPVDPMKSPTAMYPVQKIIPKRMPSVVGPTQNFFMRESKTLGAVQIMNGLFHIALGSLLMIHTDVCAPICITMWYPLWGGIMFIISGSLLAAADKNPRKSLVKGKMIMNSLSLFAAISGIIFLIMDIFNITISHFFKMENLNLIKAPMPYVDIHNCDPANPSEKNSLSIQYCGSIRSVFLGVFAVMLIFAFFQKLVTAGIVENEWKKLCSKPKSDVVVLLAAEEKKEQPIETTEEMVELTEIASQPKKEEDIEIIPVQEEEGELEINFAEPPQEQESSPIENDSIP
The experiment in a line: IHC, precomplexed with biotinylated rabbit anti-dog IgG, cryosections of canine spleen, 10 ug/mL. How it is done:
The detection reagent or negative control antibody (at a concentration of 10 […]) was mixed with biotinylated rabbit anti-dog IgG, Fc fragment-specific antibody (RbaDglgG) at a concentration of 15 ug/mL to achieve a primary : secondary antibody ratio of 1:1.5 on the day prior to staining.
Precomplexed antibodies were incubated overnight on a rocker mechanism in a refrigerator set to maintain 4° C., Prior to use of the antibody on the subsequent day, dog gamma globulins were added to each vial to achieve a final concentration of 3 mg/mL, and then incubated for at least 2 hours on the rocker mechanism in a refrigerator set to maintain 4° C. Slides were fixed in acetone for 10 minutes at room temperature at the time of sectioning. On the day of staining, the slides were rinsed twice with Tris-buffered saline, 0.15M NaCl, pH 7.6 TBS. Endogenous peroxidase was then quenched by incubation of the slides with an appropriate reagent such as Biocare PeroxAbolish reagent for 5 minutes at room temperature. Next, the slides were rinsed twice with TBS, incubated with the avidin solution for 15 minutes, rinsed once with TBS, incubated with the biotin solution for 15 minutes, and rinsed once with TBS, The slides were then treated with a protein block designed to reduce nonspecific binding for 20 minutes.

B1: K9LO-133 (antibody, V domains shown)
VH: EVQLVQSGAEVKKPGESLKISCKGSGRTFTSYNMHWVRQMPGKGLEWMGAIYPLTGDTSYNQKSKLQVTISADKSISTAYLQWSSLKASDTAMYYCARSTYVGGDWQFDVWGKGTTVTVSS
VL: EIVLTQSPGTLSLSPGERATLSCRASRSVPYIHWYQQKPGQAPRLLIYATSALASGIPDRFSGSGSGTDFTLTISRLEPEDFAVYYCQQWLSNPPTFGQGTKLEIKR
notes: In the IHC it was precomplexed with biotinylated rabbit anti-dog IgG Fc antibody; also called chimeric canine isotype C monoclonal antibody directed against canine CD20
Regarding B1, the binding result is “binds”.
